Measured values published in paper PMC3893235 (mAbs, 2013).

Experiments:
biotinylated huAng2 [1] = target: T1, biotinylated huAng2 (human, UniProt O15123, biotin); test: ELISA
human Ang2 protein = human Ang2 protein (Homo sapiens (Human)., UniProt O15123); test: KinExA
biotinylated huAng2 [2] = target: T1, biotinylated huAng2; test: ELISA; remark: listed apart in the source
human Tie2-Fc = human Tie2-Fc (human, UniProt Q02763 23-748); test: ELISA
human Tie2-Fc, sequence (Q02763 23-748): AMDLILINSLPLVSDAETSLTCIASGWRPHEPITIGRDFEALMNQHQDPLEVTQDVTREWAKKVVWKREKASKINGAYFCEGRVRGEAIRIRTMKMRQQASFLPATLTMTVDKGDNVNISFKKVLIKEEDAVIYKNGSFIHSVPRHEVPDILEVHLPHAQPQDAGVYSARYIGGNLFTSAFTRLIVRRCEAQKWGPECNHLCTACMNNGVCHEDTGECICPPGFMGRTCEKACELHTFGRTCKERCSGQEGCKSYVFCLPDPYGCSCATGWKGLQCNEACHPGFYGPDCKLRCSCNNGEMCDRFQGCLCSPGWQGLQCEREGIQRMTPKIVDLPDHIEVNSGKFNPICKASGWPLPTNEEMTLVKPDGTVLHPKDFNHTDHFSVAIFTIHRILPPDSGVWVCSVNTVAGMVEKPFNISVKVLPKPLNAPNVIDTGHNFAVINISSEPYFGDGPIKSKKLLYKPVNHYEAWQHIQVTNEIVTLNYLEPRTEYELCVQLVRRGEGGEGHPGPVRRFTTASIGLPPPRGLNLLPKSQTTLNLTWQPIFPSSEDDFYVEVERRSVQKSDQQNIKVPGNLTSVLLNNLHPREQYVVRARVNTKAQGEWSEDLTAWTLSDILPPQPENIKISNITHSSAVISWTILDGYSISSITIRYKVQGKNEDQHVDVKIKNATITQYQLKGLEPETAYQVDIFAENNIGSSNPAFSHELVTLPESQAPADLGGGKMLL

B1: Ang2 mAb (antibody, V domains shown)
VH: QVQLVESGGGVVQPGRSLRLSCAASGFTFTNYGMHWGRQAPGKGLEWVAVISHDGNNKYYVDSVKGRFTISRDNSKNTLYLQMNSLRAEDTAVYYCAREGIDFWSGLNWFDPWGQGTLVTVSS
VL: EIVLTQSPGTLSLSPGERATLSCRASQSITGSYLAWYQQKPGQAPRLLICGASSWATGIPDRFSGSGSGTDFTLTISRLEPEDFAVYYCQQYSSSPITFGQGTRLEIK
IC50 (biotinylated huAng2 [1]): 0.2 nM | Kd (human Ang2 protein): 0.0245 nM

B2: Ang2 mAb variant Cys49Gly (antibody, V domains shown)
VH: QVQLVESGGGVVQPGRSLRLSCAASGFTFTNYGMHWGRQAPGKGLEWVAVISHDGNNKYYVDSVKGRFTISRDNSKNTLYLQMNSLRAEDTAVYYCAREGIDFWSGLNWFDPWGQGTLVTVSS
VL: EIVLTQSPGTLSLSPGERATLSCRASQSITGSYLAWYQQKPGQAPRLLIGGASSWATGIPDRFSGSGSGTDFTLTISRLEPEDFAVYYCQQYSSSPITFGQGTRLEIK
fold change of potency against Ang2 mAb (biotinylated huAng2 [2]): ≤ 2.5 fold

B3: Ang2 mAb variant Cys49Ala (antibody, V domains shown)
VH: QVQLVESGGGVVQPGRSLRLSCAASGFTFTNYGMHWGRQAPGKGLEWVAVISHDGNNKYYVDSVKGRFTISRDNSKNTLYLQMNSLRAEDTAVYYCAREGIDFWSGLNWFDPWGQGTLVTVSS
VL: EIVLTQSPGTLSLSPGERATLSCRASQSITGSYLAWYQQKPGQAPRLLIAGASSWATGIPDRFSGSGSGTDFTLTISRLEPEDFAVYYCQQYSSSPITFGQGTRLEIK
fold change of potency against Ang2 mAb (biotinylated huAng2 [2]): ≤ 2.5 fold

B4: Cys49Asp (antibody, V domains shown)
VH: QVQLVESGGGVVQPGRSLRLSCAASGFTFTNYGMHWGRQAPGKGLEWVAVISHDGNNKYYVDSVKGRFTISRDNSKNTLYLQMNSLRAEDTAVYYCAREGIDFWSGLNWFDPWGQGTLVTVSS
VL: EIVLTQSPGTLSLSPGERATLSCRASQSITGSYLAWYQQKPGQAPRLLIDGASSWATGIPDRFSGSGSGTDFTLTISRLEPEDFAVYYCQQYSSSPITFGQGTRLEIK
binding result (biotinylated huAng2 [2]): binds

B5: Ang2 mAb variant Cys49Glu (antibody, V domains shown)
VH: QVQLVESGGGVVQPGRSLRLSCAASGFTFTNYGMHWGRQAPGKGLEWVAVISHDGNNKYYVDSVKGRFTISRDNSKNTLYLQMNSLRAEDTAVYYCAREGIDFWSGLNWFDPWGQGTLVTVSS
VL: EIVLTQSPGTLSLSPGERATLSCRASQSITGSYLAWYQQKPGQAPRLLIEGASSWATGIPDRFSGSGSGTDFTLTISRLEPEDFAVYYCQQYSSSPITFGQGTRLEIK
binding result (biotinylated huAng2 [2]): binds

B6: Cys49Thr mAb (antibody, V domains shown)
VH: QVQLVESGGGVVQPGRSLRLSCAASGFTFTNYGMHWGRQAPGKGLEWVAVISHDGNNKYYVDSVKGRFTISRDNSKNTLYLQMNSLRAEDTAVYYCAREGIDFWSGLNWFDPWGQGTLVTVSS
VL: EIVLTQSPGTLSLSPGERATLSCRASQSITGSYLAWYQQKPGQAPRLLITGASSWATGIPDRFSGSGSGTDFTLTISRLEPEDFAVYYCQQYSSSPITFGQGTRLEIK
IC50 (biotinylated huAng2 [1]): 0.28 nM | Kd (human Ang2 protein): 0.037 nM

B7: biotinylated huAng2 (ligand, human, UniProt O15123 19-496, looked up)
chain: YNNFRKSMDSIGKKQYQVQHGSCSYTFLLPEMDNCRSSSSPYVSNAVQRDAPLEYDDSVQRLQVLENIMENNTQWLMKLENYIQDNMKKEMVEIQQNAVQNQTAVMIEIGTNLLNQTAEQTRKLTDVEAQVLNQTTRLELQLLEHSLSTNKLEKQILDQTSEINKLQDKNSFLEKKVLAMEDKHIIQLQSIKEEKDQLQVLVSKQNSIIEELEKKIVTATVNNSVLQKQQHDLMETVNNLLTMMSTSNSAKDPTVAKEEQISFRDCAEVFKSGHTTNGIYTLTFPNSTEEIKAYCDMEAGGGGWTIIQRREDGSVDFQRTWKEYKVGFGNPSGEYWLGNEFVSQLTNQQRYVLKIHLKDWEGNEAYSLYEHFYLSSEELNYRIHLKGLTGTAGKISSISQPGNDFSTKDGDNDKCICKCSQMLTGGWWFDACGPSNLNGMYYPQRQNTNKFNGIKWYYWKGSGYSLKATTMMIRPADF
modifications: biotin
binding result (human Tie2-Fc): binds

B8: Cys49Asn (antibody, V domains shown)
VH: QVQLVESGGGVVQPGRSLRLSCAASGFTFTNYGMHWGRQAPGKGLEWVAVISHDGNNKYYVDSVKGRFTISRDNSKNTLYLQMNSLRAEDTAVYYCAREGIDFWSGLNWFDPWGQGTLVTVSS
VL: EIVLTQSPGTLSLSPGERATLSCRASQSITGSYLAWYQQKPGQAPRLLINGASSWATGIPDRFSGSGSGTDFTLTISRLEPEDFAVYYCQQYSSSPITFGQGTRLEIK
binding result (biotinylated huAng2 [2]): binds

B9: Ang2 mAb variant Cys49Phe (antibody, V domains shown)
VH: QVQLVESGGGVVQPGRSLRLSCAASGFTFTNYGMHWGRQAPGKGLEWVAVISHDGNNKYYVDSVKGRFTISRDNSKNTLYLQMNSLRAEDTAVYYCAREGIDFWSGLNWFDPWGQGTLVTVSS
VL: EIVLTQSPGTLSLSPGERATLSCRASQSITGSYLAWYQQKPGQAPRLLIFGASSWATGIPDRFSGSGSGTDFTLTISRLEPEDFAVYYCQQYSSSPITFGQGTRLEIK
binding result (biotinylated huAng2 [2]): binds
